The assay concerns the target SARS-CoV-2 Omicron BA.2 spike extracellular domain trimer (SARS-CoV-2 (Omicron BA.2)) (UniProt P0DTC2).

For the substance JMB2002 Fab, the Kd stood at 2.6 nM.

As for JMB2002 IgG (antibody), the equilibrium dissociation constant (Kd) came out at 0.3 nM.

For orientation: Kd means the concentration at which binding is half-saturated.

For the origin of these results see paper doi:10.1101/2022.04.12.488075.
